# Laboratory results as given in patent US9695189B2, “Chemical crosslinkers and compositions thereof” (priority 2013, dated 2017).
# Assay: Cleavage of conjugate in potassium phosphate buffer and rat serum
# Format: in vitro ADME
# Settings: potassium phosphate buffer pH 7.4 and rat serum (1:1), 37° C., overnight incubation
# Description: A mixture of compound (26) (2.9 mg) in potassium phosphate buffer (1.0 mL, pH 7.4) and rat serum (1.0 mL, Aleken Biologicals) was incubated at 37° C.
substance,measurement,value
L-glutathione N^2-CBZ-lysine conjugate [Compound 26],Cleavage (hydrolysis) of conjugate releasing N^2-(carbobenzyloxy)-L-lysine,hydrolysis of compound (26) to yield N^2-(carbobenzyloxy)-L-lysine was observed
